Reference: the supplement of paper PMC12042874
± gives the uncertainty stated by the source.

Experiment: amyloid nucleation score (Sup35N fusion, yeast selection) (log enrichment); library NNK1; higher = more nucleation; inactive = no reads after selection
Procedure, shortened: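 Yeast lacking psi expressed peptides of 20 random codons fused to Sup35N, received 100 μM copper sulfate for 24 hours, and were then grown for 7 days at 30°C on medium lacking adenine and uracil. Illumina sequencing of input and output plasmid inserts provided the reads. Nucleation scores are DiMSum log enrichments of output over input, centred on the mode of non-aggregating sequences. Any sequence with under 100 input reads was excluded.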

Substance	amyloid nucleation score
LTNTGEYQLVSTIPQGRHVV	-0.222 ± 0.36
LTRKTVRKTSKNRIGLHHQT	inactive
LTSRIEWNGHAQSLWWLLSK	0.711 ± 0.21
LTSRVQCKNNCFSD	2.38 ± 0.55
LTYATDSFNRNFHILMHHVP	-0.711 ± 0.74
LTYLWFT	-0.095 ± 0.27
LVDCMALLNRYTSRIMDNC	-1.07 ± 0.8
LVDSNFCVNVCAGQSRRVYG	-0.712 ± 0.8
LVELLVWMAGWRCGDFLACR	0.867 ± 0.58
LVFKLLVLDHKSFGLLMVDS	-0.355 ± 0.63
LVFTCVGCWYQGKLWNE	4.25 ± 0.12
LVHMIAYAVGNLMCIRPLLI	-0.467 ± 0.43
LVHPQVSVGS	0.632 ± 0.74
LVHRRFMESDISGLCCALLW	-0.224 ± 1.4
LVHSFMW	0.876 ± 0.51
LVHTDTNLVF	inactive
LVHVGSQHKTFTPCSMEFLI	inactive
LVLFVTFGWCIDELRWMKRR	-0.51 ± 2.1
LVLGWRFIVPRVNLISLGFV	inactive
LVLVRFITPVDLAVMNGRLW	-0.927 ± 0.34
LVMRRKYLVNSNTLCSFGLH	inactive
LVMTYVFLDCI	-0.634 ± 1.1
LVNDPVFMGTWILSARICNV	0.323 ± 0.36
LVPCSWFYLDRSAQDSDCFS	-0.754 ± 1.1
LVPPGSYRSCLSHGRNCYSC	-0.203 ± 0.46
LVPRIRFWDYHNTELATHQK	5.13 ± 0.07

Substance	amyloid nucleation score
LVQESRHGLIRIRRVLLRIS	-0.252 ± 0.52
LVRGVHT	-0.446 ± 0.28
LVRTIVLNKRIMWMIQLCFK	0.86 ± 0.63
LVTFNDSQLSTWASLGLNS	-0.003 ± 0.46
LVVFISRVFTNDITFRFANI	0.675 ± 0.78
LVYPYESLFHFESGASH	0.32 ± 0.21
LVYSFRKTFSC	7.523 ± 0.047
LWCITYH	4.14 ± 0.1
LWCVLHDVGGGSYSLDRYTG	0.379 ± 0.83
LWFLIFSSKADAKVDRRILL	0.041 ± 0.47
LWGFSISYRKFVVSYGKAP	0.279 ± 0.31
LWGWGFSSEANPIGGRGILN	0.277 ± 0.53
LWLRLRFVCKYRV	1.9 ± 0.59
LWPFKSFGLVPCTV	-0.572 ± 0.69
LWPTGSRLSDG	-0.354 ± 0.51
LWVVRI	0.67 ± 0.85
LWVYSMWVQLTAGFNTVDVM	-0.707 ± 0.95
LWYCTSSNNCDCSAAIIVNT	4.19 ± 0.1
LYAALIIDYA	0.681 ± 0.66
LYDCCYIFTYYGSRYLTQKS	-0.091 ± 0.27
LYFKSSRCR	1.12 ± 0.52
LYFWFVCNFAEIDFTITL	3.05 ± 0.097
LYHSVSSVEDLQSDACTSCM	6.728 ± 0.046
LYIYWCSWVNGTFT	0.393 ± 0.33
LYLEGINVFSVMLHEVLHTG	-0.052 ± 0.43
LYLYNYRFAGLFFIDLETIW	-0.415 ± 0.57

Substance	amyloid nucleation score
LYMVWCACSFWDYITVFIFM	0.041 ± 0.65
LYMYRSYI	0.137 ± 0.42
LYPSISGFFCCKWGSVVNGL	inactive
LYQKHWVLSTALE	inactive
LYRWCGPCYLIWGVSWS	-0.199 ± 0.45
LYSDGLFANRTWLYF	1.01 ± 0.61
LYSFNGN	inactive
LYYIRVFRNSI	-0.751 ± 0.46
LYYNFKF	0.321 ± 0.33
LYYRKLVCWESGMA	0.318 ± 0.66
LYYYEQH	-0.388 ± 0.54
MADFFIHCFLSSYCEWFIWR	-0.283 ± 0.46
MAPLTMTSDLSHISKTGIWG	1.38 ± 0.9
MASHGDWGCSNRVFLFPHCR	-2.08 ± 1.9
MASPLSLGKAVALAKHKWGD	0.001 ± 1.1
MATSPFGERVPFIYLDHFCY	0.009 ± 0.42
MCDVERCRS	inactive
MCLLKGGSLVIVCGSGH	5.76 ± 0.061
MDFDRCYSFRGMR	-0.13 ± 0.47
MDFYVLPNCRQNGMLCERSC	0.508 ± 0.67
MDNCIISRYMFHMLVTSKVY	0.996 ± 0.52
MDPTEEE	-0.573 ± 1.4
MDSCCIMTMIKHELGLPYQP	3.77 ± 0.1
MDSRAVYYF	inactive
MDSTHSIPCHLNVFL	-0.475 ± 0.58
MDSYLSSNCKCDTLDVGGNE	-1.17 ± 1.6

Substance	amyloid nucleation score
MDTSL	-0.235 ± 0.82
MEIRYYFVFEEDGRVFEGGT	0.025 ± 0.43
MELTIAKSEMHVFKGGCVQL	-0.45 ± 0.57
MFAVMNGAVLSTPLDNVCRV	-0.581 ± 1.6
MFCIDSRAVAGMRDGRINLG	1.64 ± 0.21
MFFGWGT	1.19 ± 0.34
MFFLQCQMRLSLLVGNVLMR	-0.054 ± 0.56
MFHSYVSLGLCKW	0.371 ± 0.84
MFIYIYGVPVLTLWGFNVCV	0.856 ± 0.48
MFMSWVDFNLD	0.066 ± 0.29
MFNRWDIHFIGNNNLYGICV	0.613 ± 0.26
MFRSRGLMAQRYNFGTQLSY	inactive
MFSLYYPFSNWFDLI	-0.001 ± 0.52
MFTWEL	0.436 ± 1.2
MFVSLSSFSYLGKTLLVFFV	inactive
MFYKSRLYNRYRYRHRCYNT	-0.072 ± 0.27
MFYVPIGPLSRCWRTALGFI	-0.786 ± 0.85
MGDVFILFLLAGFLEDHNGY	-1.24 ± 0.45
MGNLATRWFQR	-0.037 ± 1.4
MGRMS	0.22 ± 0.69
MGYCIWFYLKSYH	-0.074 ± 0.3
MHYGTLSIVV	0.302 ± 0.3
MHYRGKFLHDHWHESH	-0.485 ± 1.1
MILFSYNG	1.7 ± 0.58
MILTTPAAERLLYYILPLRD	-0.616 ± 0.81
MIMTW	-0.418 ± 0.48

Substance	amyloid nucleation score
MIQRGLVGKDSTHVI	-0.175 ± 0.57
MIQVPFKCPCKLTADLGGNW	inactive
MIRQFSVSICSTRSVCVHPR	-0.135 ± 0.59
MITARSLSPRIFRAESAYSE	0.117 ± 0.36
MITWKGLFPAGVGFLRLHA	-0.024 ± 0.43
MKLNGFVWPG	-0.256 ± 0.55
MKNFPLYSCP	-0.66 ± 0.69
MKSFSMLPYIIVFRYY	0.823 ± 0.85
MLGDAIMGM	1.09 ± 0.57
MLGYIHAEVHVIVSWNLCLK	-0.378 ± 0.53
MLIFHTCA	0.483 ± 1.1
MLIFNGFTLLVMRVEVAVGS	0.066 ± 0.64
MLLSFLYLV	5.26 ± 0.049
MLNAIRSVGMSTHRSSEGG	-0.475 ± 0.77
MLPMLQPTLQET	0.313 ± 0.42
MLPRPVRPVGGTRWESGVKL	0.548 ± 0.3
MLVPRSRIRIPACRFQHRLP	-0.064 ± 0.35
MMGWV	-0.619 ± 0.48
MMKVIAANRVY	0.315 ± 0.63
MMNVTVKRFRLDQHRLIDCA	0.383 ± 0.34
MMSPLKR	inactive
MMYDGIVSR	-0.184 ± 0.31
MNENCGFVKFVRSKKRFKDV	-0.287 ± 0.39
MNRVDLCVNA	0.438 ± 0.38
MNVFRGSVPAFPLPPYMRLA	-0.242 ± 0.34
MPAMTMMWQ	0.415 ± 0.4
